Ends that are not written are not given here.
Molecular target: Heat Shock Protein 90 (HSP90), endogenous, in human cell lines (human, UniProt P07900 2-732)
Assay: cell-based or functional assay

| Binder | clonogenic survival of UMSCC1 cells (Survival Fraction), peptide delivered with Chariot [survival fraction] |
| --- | --- |
| GVGSPYVS [Peptide 4 GVGSPYVS] | 1 |
| DEAYVMA [Peptide 1 DEAYVMA] | 0.93 |
| SVDNPHVC (not fully specified) [Peptide 2 SVDNPHVC (Disruptin)] | 0.77 |
| NHVPSDVC (not fully specified) [Peptide 8 NHVPSDVC (scrambled peptide)] | 1 |
| DEAYVMAGVGSPYVSRLLGIC [Peptide 6 DEAYVMAGVGSPYVSRLLGIC] | 1 |
| SVGNPHVC [Peptide 7 SVGNPHVC] | 0.97 |
| RLLGIC [Peptide 3 RLLGIC] | 0.85 |

— patent US20150218277A1 (REGENTS OF THE UNIVERSITY OF MICHIGAN, published 2015)
